How the values were obtained:
[1] = target: actin filaments grown from rabbit skeletal muscle actin (unlabeled ADP-F-actin) (rabbit) (UniProt P68135); assay: single-molecule TIRF microscopy
[2] = target: actin filaments grown from rabbit skeletal muscle actin (unlabeled ADP-F-actin) (rabbit) (UniProt P68135); assay: TIRF microscopy with microfluidics

## mNeonGreen–Tpm1.8 (tropomyosin isoform Tpm1.8 fused at its N-terminus to an alanine–serine extension and to mNeonGreen) (natural protein)
[1]
  Kd of an isolated Tpm1.8 molecule on the actin filament (RI/BI): 500 µM
  RI, rate of release of an isolated Tpm from the actin filament (length): > 4.13e-08 m⋅s^-1
  RI, rate of release of an isolated Tpm from the actin filament (molecules): > 1.25 s⁻¹
  half-life of the complex of an isolated Tpm1.8 molecule and the actin filament: < 0.6 s
[2]
  BB, rate constant of binding to the domain edge at the barbed end (length): 1.19 m⋅M^-1⋅s^-1
  BBP, combined binding rate constant at both domain edges (length): 1.83 m⋅M^-1⋅s^-1
  BBP, combined binding rate constant at both domain edges (molecules): 5.6e+07 M^-1⋅s^-1
  BP, rate constant of binding to the domain edge at the pointed end (length): 0.64 m⋅M^-1⋅s^-1
  RB, rate of release from the domain edge at the barbed end (length): 1.98e-09 m⋅s^-1
  RB, rate of release from the domain edge at the barbed end (molecules): 0.061 s⁻¹
  RBP, combined release rate at both domain edges (length): 3.05e-09 m⋅s^-1
  RBP, combined release rate at both domain edges (molecules): 0.094 s⁻¹
  RP, rate of release from the domain edge at the pointed end (length): 1.07e-09 m⋅s^-1
  RP, rate of release from the domain edge at the pointed end (molecules): 0.033 s⁻¹
  critical concentration for elongation (affinity at the domain edge): 1.65 nM
  half-life of a molecule bound at the domain edge at the barbed end: 11 s
  half-life of a molecule bound at the domain edge at the pointed end: 21 s

Reference: article PMC7851853
